Article PMC4980077

What was measured:
[1] = biological target: smAKAP-wt-GFP (human) (UniProt Q9BSF0); assay: FRET or BRET
[2] = biological target: PKA-RIα (Homo sapiens) (UniProt P10644); assay: fluorescence polarization; conditions: cited from earlier work
[3] = biological target: PKA-RIβ (Homo sapiens) (UniProt P31321); assay: fluorescence polarization; conditions: cited from earlier work

smAKAP, sequence (Q9BSF0 2-95): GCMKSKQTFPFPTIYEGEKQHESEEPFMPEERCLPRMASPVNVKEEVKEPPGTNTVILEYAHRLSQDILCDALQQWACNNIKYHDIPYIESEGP
PKA-RIα (Homo sapiens), sequence (P10644 whole entry): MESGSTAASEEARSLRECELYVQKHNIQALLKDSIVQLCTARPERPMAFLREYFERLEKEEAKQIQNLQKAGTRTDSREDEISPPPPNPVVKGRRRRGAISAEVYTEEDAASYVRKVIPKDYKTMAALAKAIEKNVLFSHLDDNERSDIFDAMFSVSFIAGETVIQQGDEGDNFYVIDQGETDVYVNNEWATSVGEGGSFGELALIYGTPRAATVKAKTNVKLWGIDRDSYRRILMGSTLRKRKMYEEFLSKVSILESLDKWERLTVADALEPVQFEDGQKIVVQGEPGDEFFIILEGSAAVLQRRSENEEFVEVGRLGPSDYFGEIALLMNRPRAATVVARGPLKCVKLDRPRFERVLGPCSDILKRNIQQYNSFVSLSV
smAKAP-wt-GFP (human), sequence (Q9BSF0 whole entry): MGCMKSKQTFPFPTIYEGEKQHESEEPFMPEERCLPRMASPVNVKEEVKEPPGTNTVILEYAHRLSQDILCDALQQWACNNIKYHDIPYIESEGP

change of FRET signal after forskolin [1] [%] | Substance | Kd [2] [nM] | Kd [3] [nM]
-2.3 | PKA-RIβ-mKO2 (from UniProt P31321 1-381) (natural protein) |  | 
 | smAKAP (from UniProt Q9BSF0) | 6.7 | 6.9
